Assay results taken from paper PMC3791854.

Molecular target: HIV Env on CEM-Env cells (HIV, strain not stated)

“CD4-CD28-CD3ζ chimeric receptor (from UniProt P01730 26-396)” showed an IFNγ in the culture of CEM-Env + CD4-dTc of 838 pg/mL, an IL2 in the culture of CEM-Env + CD4-dTc of 318 pg/mL and a TNFα in the culture of CEM-Env + CD4-dTc of 249 pg/mL.
